Literature values in article PMC4549621.

Target: amyloid-beta monomer Abeta (Homo sapiens) (UniProt P05067)

gantenerumab
Kd: 0.6 nM
